Results taken from publication PMC11985968 (Nature Communications, 2025).
Where “and” joins values, the source holds several entries; their conditions need not be identical. Identical values can stand only once.

Molecular target: T1, Mycobacterium tuberculosis UvrA (Mycobacterium tuberculosis, UniProt P9WQK7 1-972)
T1 sequence: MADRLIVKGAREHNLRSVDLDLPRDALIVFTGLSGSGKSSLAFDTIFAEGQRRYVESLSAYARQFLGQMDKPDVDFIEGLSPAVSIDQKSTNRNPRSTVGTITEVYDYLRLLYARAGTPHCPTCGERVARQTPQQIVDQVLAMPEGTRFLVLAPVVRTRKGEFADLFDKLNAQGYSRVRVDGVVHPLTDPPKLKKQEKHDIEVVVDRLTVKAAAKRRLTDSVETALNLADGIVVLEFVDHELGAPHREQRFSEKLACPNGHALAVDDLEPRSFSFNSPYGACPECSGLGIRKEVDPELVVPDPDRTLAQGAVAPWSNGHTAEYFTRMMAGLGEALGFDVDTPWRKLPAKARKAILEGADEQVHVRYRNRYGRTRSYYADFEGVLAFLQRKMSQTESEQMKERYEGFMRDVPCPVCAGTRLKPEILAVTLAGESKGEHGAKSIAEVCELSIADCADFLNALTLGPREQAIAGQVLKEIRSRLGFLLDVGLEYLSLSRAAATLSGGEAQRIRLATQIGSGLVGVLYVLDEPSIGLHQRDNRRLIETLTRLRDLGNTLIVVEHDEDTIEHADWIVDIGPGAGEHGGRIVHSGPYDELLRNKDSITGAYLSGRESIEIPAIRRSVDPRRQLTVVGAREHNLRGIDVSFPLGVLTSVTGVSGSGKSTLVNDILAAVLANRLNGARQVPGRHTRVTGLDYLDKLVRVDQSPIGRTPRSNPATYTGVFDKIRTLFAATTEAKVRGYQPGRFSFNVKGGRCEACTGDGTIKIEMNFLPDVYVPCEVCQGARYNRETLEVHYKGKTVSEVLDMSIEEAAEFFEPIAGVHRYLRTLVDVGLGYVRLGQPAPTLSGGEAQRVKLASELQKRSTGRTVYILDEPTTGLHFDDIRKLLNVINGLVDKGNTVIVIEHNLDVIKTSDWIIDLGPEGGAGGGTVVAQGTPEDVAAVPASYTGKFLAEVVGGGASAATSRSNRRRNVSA
Test: cryo-EM structure

B1: Mycobacterium tuberculosis UvrB (enzyme)
chain: VRAGGHFEVVSPHAPAGDQPAAIDELERRINAGERDVVLLGATGTGKSATTAWLIERLQRPTLVMAPNKTLAAQLANELREMLPHNAVEYFVSYYDYYQPEAYIAQTDTYIEKDSSINDDVERLRHSATSALLSRRDVVVVASVSCIYGLGTPQSYLDRSVELKVGEEVPRDGLLRLLVDVQYTRNDMSFTRGSFRVRGDTVEIIPSYEELAVRIEFFGDEIEALYYLHPLTGEVIRQVDSLRIFPATHYVAGPERMAHAVSAIEEELAERLAELESQGKLLEAQRLRMRTNYDIEMMRQVGFCSGIENYSRHIDGRGPGTPPATLLDYFPEDFLLVIDESHVTVPQIGGMYEGDISRKRNLVEYGFRLPSACDNRPLTWEEFADRIGQTVYLSATPGPYELSQTGGEFVEQVIRPTGLVDPKVVVKPTKGQIDDLIGEIRTRADADQRVLVTTLTKKMAEDLTDYLLEMGIRVRYLHSEVDTLRRVELLRQLRLGDYDVLVGINLLREGLDLPEVSLVAILDADKEGFLRSSRSLIQTIGRAARNVSGEVHMYADKITDSMREAIDETERRRAKQIAYNEANGIDPQPLRKKIADILDQVYREADDTAVVEVGGSGRNASRGRRAQGEPGRAVSAGVFEGRDTSAMPRAELADLIKDLTAQMMAAARDLQFELAARFRDEIADLKRELRGMDAAGLK
stoichiometry N: 1 UvrB per UvrA dimer and 2 UvrB per UvrA dimer
